Changes are numbered by the printed parent chain. Values belong to the binder of their own block, whether it stands above or below them.
Experiments:
[1] = target: human fatty acid amide hydrolase (FAAH), amino acids 30-579, untagged (Homo sapiens, UniProt O00519); experiment: SPR
[2] = target: recombinant mouse artemin protein (Ala112-Gly224 fragment) (Mus musculus, UniProt Q9Z0L2); experiment: SPR
Chain of recombinant mouse artemin protein (Ala112-Gly224 fragment) (Q9Z0L2 112-224): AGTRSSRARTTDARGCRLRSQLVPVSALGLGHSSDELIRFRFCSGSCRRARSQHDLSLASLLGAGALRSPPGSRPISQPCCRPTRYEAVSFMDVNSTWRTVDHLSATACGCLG

Chain of human fatty acid amide hydrolase (FAAH), amino acids 30-579, untagged (O00519 30-579): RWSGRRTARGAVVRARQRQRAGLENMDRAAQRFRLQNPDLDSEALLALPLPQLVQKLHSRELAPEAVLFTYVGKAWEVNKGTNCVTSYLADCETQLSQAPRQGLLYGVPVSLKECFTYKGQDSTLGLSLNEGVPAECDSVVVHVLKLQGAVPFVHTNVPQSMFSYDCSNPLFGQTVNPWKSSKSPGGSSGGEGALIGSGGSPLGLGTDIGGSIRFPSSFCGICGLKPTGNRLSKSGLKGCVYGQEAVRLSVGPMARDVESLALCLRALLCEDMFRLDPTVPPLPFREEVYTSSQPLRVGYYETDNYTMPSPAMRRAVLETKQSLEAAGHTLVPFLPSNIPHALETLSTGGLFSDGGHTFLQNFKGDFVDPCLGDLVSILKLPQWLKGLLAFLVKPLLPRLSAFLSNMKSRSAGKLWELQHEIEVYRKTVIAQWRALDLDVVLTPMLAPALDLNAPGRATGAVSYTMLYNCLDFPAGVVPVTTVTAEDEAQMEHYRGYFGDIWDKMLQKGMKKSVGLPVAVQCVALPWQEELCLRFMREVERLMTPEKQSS

B1: F9 llama-VHH nanobody (affinity maturated) (VHH)
VHH: QVQLVESGGGLAQAGGSLRLSCAASGRTFSDNTMAWHRQGPGKQRGLVAFITTGGRTVYTDSVKGRFIISRDNAKNTGYLQMNSLKPEDTAVYYCFVAGNWGQGTQVTVSS
Kd [1]: 1.26 nM
koff [1]: 0.000214 s⁻¹
kon [1]: 169000 M⁻¹ s⁻¹

B3: A3 llama-VHH nanobody (original) (VHH)
VHH: B1 VHH with A12V, F96Y
Kd [1]: 1.56 nM
koff [1]: 5.7e-05 s⁻¹
kon [1]: 36400 M⁻¹ s⁻¹

B5: LM41 llama-VHH nanobody (mutated) (VHH)
VHH: QVQLVESGGGLVQAGGSLRLSCAASGRTLSRYAVGWFRQAPGKEREFVAVVHWNGVSTYHAEPVKGRFTISRDNAKNTVYLQMNSLKPDDTAVYYCAAATTSYVDIYTTDYDYWGQGTQVTVSS
Kd [2]: 111 nM
koff [2]: 0.0052 s⁻¹
kon [2]: 46000 M⁻¹ s⁻¹

Further lines, results first:

Kd [1]: 0.65 nM
koff [1]: 0.000107 s⁻¹
kon [1]: 165000 M⁻¹ s⁻¹
B2: OD1 llama-VHH nanobody (affinity maturated) (VHH)
VHH: B1 VHH with A12V, Y79F, F96Y

Kd [2]: 456 nM
koff [2]: 0.023 s⁻¹
kon [2]: 50000 M⁻¹ s⁻¹
B4: LU68 llama-VHH nanobody (naive) (VHH)
VHH: B5 VHH with H60Y

Kd [2]: 178 nM
koff [2]: 0.0088 s⁻¹
kon [2]: 49000 M⁻¹ s⁻¹
B6: LU5 llama-VHH nanobody (naive) (VHH)
VHH: QVQLVESGGGLVQAGASLRLSCAASGGTLVNSSMGWFRQAPGKERDFVATINWRGDTTWYGESVKGRFSISRDNAKNTVYLQMNSLNPEDTAVYYCAVYRTRYYTGRRMMSPDEYDVWGQGTQVTVSS

Kd [2]: 102 nM
koff [2]: 0.004 s⁻¹
kon [2]: 39000 M⁻¹ s⁻¹
B7: LM52 llama-VHH nanobody (mutated) (VHH)
VHH: B6 VHH with A75T, T78M, N87K
